Experimental data taken from paper PMC10184318, “The fission yeast cytokinetic ring component Fic1 promotes septum formation” (Biology Open, 2023).

B1: Fic1-MBP [S. pombe] / Cyk3-SH3-GST (aa1-66) [S. pombe] (parent complex)
chain 1: MSKNPLGTLVVRIWKAKNLPNKALVGKQSPYCVCRVGEVVKRTQTDKRSGQEPSWNAVLEFNIPSESYHIMKITVFHEGFRKHPHLIGDTVLSFEKAMKEELQSEWYELKNEFQFAGELSVQFKFIPTDPLYFDRASSKPVLQFPYSSVAALTPVPKKPSKPSKPRKKVPVSHPLPPTPPSREEHVSVPRESSLFTYEDDPLPSFPSPYMVDDYYTQDVFVSDNVNDYSYGVQNPTNPRLSVEDYDANHSSLPPVPPPHLILPTASSSQIFH
chain 2: MSIPKQLPCMVRALYAWPGEREGDLKFTEGDLIECLSIGDGKWWIGRHINTNTQGIFPSNFVHCLD

Variants of: B1
Test: in vitro binding assay (GST pull-down, Coomassie Blue-stained SDS-PAGE, band quantification); parent: 1; read off a plot

How did the response turn out when chain 1 MSKNPLGTLVVRIWKAKNLPNKALVGKQSPYCVCRVGEVVKRTQTDKRSGQEPSWNAVLEFNIPSESYHIMKITVFHEGFRKHPHLIGDTVLSFEKAMKEELQSEWYELKNEFQFAGELSVQFKFIPTDPLYFDRASSKPVLQFPYSSVAALTPVPKKPSKPSKPRKKVPVSHPLAPTAPSREEHVSVPRESSLFTYEDDPLPSFPSPYMVDDYYTQDVFVSDNVNDYSYGVQNPTNPRLSVEDYDANHSSLPPVPPPHLILPTASSSQIFH [chain 1 P176A, chain 1 P179A] was run?
The response was ~0.19 A.U.

For chain 1 MSKNPLGTLVVRIWKAKNLPNKALVGKQSPYCVCRVGEVVKRTQTDKRSGQEPSWNAVLEFNIPSESYHIMKITVFHEGFRKHPHLIGDTVLSFEKAMKEELQSEWYELKNEFQFAGELSVQFKFIPTDPLYFDRASSKPVLQFPYSSVAALTPVPKKPSKPSKPRKKVPVSHALPATPPSREEHVSVPRESSLFTYEDDPLPSFPSPYMVDDYYTQDVFVSDNVNDYSYGVQNPTNPRLSVEDYDANHSSLPPVPPPHLILPTASSSQIFH [chain 1 P174A, chain 1 P177A], which response is on record?
Its response is ~0.35 A.U.
